The results in this text go back to US20040213780A1 (GENERAL HOSPITAL, published 2004).

For this assay, the target named is T1, mutant full-length huntingtin with 75 glutamines (HttQ75) (UniProt P42858 1-3142).
T1 construct: domain: full-length; In the yeast two-hybrid assay expressed as prey fusion from vector pJG4-5 (hemagglutinin tag); also called mutant huntingtin
In words: yeast two-hybrid, huntingtin prey against TAFII130 bait. The method, then: All the constructs were verified by DNA sequencing for correct reading frame and orientation. All assays were performed in triplicates and protein expression verified by Western blotting using standard procedures. The ability of the LexA fusion to bind operator was confirmed by a repression assay. The two-hybrid screen assays were performed as described (D. Krainc et al., J. Biol. Chem. 273:26218, 1998).
Because NH₂-terminal fragments of mutant huntingtin can effectively induce cell death in both in vivo and in vitro models (L. Mangiarini, et al., Cell 87:493, 1996; J. K. Copper, et al., Hum. Mol. Genet. 7:783, 1998; D. Martindale, et al., Nature Genet. 18:150, 1998; S. H. Li and X. Y. Li, Hum. Mol. Genet. 7:777, 1998), we examined the interactions of Sp1 and TAFII130 with the 480-amino acid NH₂-terminal fragment of huntingtin. […] FIG. 1 illustrates that Huntingtin interacted with Sp1 and TAFII130 in vitro and in human HD brain tissue. FIG. 1A illustrates results of yeast two-hybrid experiments, as described above herein, performed with full-length (HttQ17 and HttQ75) or truncated huntingtin constructs (Htt480Q17 and Htt480Q68) as prey against bait plasmids containing full-length Sp1 or Sp1 lacking the DNA binding domain (Sp1AB, amino acids 83 through 621).

T1 sequence (P42858 other isoform, or with tags, fused parts or gaps mutant limits assumed): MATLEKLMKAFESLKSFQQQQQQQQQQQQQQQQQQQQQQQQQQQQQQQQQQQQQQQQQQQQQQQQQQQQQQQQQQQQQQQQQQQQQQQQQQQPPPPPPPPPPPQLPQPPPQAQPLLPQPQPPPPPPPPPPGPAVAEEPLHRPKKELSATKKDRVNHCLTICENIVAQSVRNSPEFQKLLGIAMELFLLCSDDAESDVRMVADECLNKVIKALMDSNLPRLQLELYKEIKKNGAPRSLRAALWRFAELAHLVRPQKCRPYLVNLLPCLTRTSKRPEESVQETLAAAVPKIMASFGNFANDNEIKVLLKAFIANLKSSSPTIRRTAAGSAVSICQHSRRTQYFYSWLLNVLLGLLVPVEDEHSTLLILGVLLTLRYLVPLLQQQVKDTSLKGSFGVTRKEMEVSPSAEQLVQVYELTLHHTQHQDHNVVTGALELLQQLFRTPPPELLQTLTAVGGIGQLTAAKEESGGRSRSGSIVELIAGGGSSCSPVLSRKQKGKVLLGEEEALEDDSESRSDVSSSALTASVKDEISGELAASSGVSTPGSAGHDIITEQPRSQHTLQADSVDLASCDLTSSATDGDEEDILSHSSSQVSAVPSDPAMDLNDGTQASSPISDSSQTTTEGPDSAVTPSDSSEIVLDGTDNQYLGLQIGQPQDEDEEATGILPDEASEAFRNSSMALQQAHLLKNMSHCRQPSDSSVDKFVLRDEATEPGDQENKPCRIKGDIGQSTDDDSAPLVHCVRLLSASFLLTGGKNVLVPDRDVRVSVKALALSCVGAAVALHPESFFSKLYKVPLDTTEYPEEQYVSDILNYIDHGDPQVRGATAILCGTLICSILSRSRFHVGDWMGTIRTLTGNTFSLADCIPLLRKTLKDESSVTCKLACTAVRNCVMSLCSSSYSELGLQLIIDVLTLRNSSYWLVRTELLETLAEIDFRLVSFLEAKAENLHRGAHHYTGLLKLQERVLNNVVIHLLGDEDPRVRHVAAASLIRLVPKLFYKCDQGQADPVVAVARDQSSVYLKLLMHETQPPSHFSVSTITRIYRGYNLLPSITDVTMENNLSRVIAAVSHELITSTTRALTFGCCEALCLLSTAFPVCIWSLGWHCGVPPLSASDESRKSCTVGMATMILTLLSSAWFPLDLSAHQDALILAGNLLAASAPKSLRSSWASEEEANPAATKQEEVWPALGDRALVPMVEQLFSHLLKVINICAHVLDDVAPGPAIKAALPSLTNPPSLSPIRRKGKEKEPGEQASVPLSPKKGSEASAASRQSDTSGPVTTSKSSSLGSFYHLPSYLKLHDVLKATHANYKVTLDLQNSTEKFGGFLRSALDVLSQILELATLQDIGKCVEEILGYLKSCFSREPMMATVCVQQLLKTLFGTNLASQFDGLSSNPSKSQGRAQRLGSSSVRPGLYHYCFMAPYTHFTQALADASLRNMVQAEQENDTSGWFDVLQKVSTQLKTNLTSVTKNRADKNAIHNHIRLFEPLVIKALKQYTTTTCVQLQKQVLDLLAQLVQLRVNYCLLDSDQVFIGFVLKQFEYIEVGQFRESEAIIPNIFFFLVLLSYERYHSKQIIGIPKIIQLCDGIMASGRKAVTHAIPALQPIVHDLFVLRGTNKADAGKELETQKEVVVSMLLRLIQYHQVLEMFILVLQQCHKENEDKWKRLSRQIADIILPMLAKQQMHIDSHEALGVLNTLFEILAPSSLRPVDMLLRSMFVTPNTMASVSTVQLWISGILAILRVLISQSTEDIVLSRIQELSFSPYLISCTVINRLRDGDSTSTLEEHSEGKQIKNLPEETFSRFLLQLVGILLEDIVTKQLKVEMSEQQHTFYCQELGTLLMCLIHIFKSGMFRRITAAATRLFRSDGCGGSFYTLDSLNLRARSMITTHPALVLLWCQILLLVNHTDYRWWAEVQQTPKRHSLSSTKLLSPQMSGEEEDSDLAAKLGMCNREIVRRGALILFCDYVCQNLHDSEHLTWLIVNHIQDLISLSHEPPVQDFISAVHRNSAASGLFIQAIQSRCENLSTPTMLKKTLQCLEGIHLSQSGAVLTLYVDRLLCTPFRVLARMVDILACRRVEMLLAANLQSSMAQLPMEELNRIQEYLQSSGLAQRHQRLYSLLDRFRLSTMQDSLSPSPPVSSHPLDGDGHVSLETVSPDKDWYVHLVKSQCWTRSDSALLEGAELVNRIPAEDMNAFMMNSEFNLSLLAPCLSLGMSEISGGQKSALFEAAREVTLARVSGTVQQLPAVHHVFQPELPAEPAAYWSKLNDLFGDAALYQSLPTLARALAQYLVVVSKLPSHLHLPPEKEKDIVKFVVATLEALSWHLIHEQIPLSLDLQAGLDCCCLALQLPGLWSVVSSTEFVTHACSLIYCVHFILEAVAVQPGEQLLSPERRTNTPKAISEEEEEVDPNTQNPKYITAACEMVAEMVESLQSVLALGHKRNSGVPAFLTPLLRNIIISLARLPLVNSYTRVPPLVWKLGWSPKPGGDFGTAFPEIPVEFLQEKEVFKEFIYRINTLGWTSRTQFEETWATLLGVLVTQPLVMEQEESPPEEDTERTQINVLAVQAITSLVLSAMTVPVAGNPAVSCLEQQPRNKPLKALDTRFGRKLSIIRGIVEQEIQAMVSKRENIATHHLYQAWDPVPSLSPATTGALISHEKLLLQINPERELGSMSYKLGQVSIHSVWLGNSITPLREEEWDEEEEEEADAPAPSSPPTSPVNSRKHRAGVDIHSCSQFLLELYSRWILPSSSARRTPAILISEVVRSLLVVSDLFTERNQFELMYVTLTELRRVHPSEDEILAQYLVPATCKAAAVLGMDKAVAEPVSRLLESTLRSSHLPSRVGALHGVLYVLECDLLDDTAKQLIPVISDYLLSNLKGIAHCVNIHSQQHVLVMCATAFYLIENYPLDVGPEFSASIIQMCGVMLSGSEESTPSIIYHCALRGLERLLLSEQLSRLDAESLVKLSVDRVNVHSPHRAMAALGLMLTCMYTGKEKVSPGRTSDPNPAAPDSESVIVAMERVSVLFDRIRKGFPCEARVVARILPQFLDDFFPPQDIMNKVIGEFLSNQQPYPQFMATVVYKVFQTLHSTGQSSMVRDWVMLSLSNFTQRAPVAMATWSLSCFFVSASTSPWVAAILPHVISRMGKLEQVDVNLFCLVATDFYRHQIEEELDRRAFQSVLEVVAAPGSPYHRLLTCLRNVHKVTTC

B1: TAFII130 (coactivator), full length (other, UniProt O00268 139-1085, looked up)
chain: PVPAAAAVAAGPEPAPAGPAKPAGPAALAARAGPGPGPGPGPGPGPGPGKPAGPGAAQTLNGSAALLNSHHAAAPAVSLVNNGPAALLPLPKPAAPGTVIQTPPFVGAAAPPAPAAPSPPAAPAPAAPAAAPPPPPPAPATLARPPGHPAGPPTAAPAVPPPAAAQNGGSAGAAPAPAPAAGGPAGVSGQPGPGAAAAAPAPGVKAESPKRVVQAAPPAAQTLAASGPASTAASMVIGPTMQGALPSPAAVPPPAPGTPTGLPKGAAGAVTQSLSRTPTATTSGIRATLTPTVLAPRLPQPPQNPTNIQNFQLPPGMVLVRSENGQLLMIPQQALAQMQAQAHAQPQTTMAPRPATPTSAPPVQISTVQAPGTPIIARQVTPTTIIKQVSQAQTTVQPSATLQRSPGVQPQLVLGGAAQTASLGTATAVQTGTPQRTVPGATTTSSAATETMENVKKCKNFLSTLIKLASSGKQSTETAANVKELVQNLLDGKIEAEDFTSRLYRELNSSPQPYLVPFLKRSLPALRQLTPDSAAFIQQSQQQPPPPTSQATTALTAVVLSSSVQRTAGKTAATVTSALQPPVLSLTQPTQVGVGKQGQPTPLVIQQPPKPGALIRPPQVTLTQTPMVALRQPHNRIMLTTPQQIQLNPLQPVPVVKPAVLPGTKALSAVSAQAAAAQKNKLKEPGGGSFRDDDDINDVASMAGVNLSEESARILATNSELVGTLTRSCKDETFLLQAPLQRRILEIGKKHGITELHPDVVSYVSHATQQRLQNLVEKISETAQQKNFSYKDDDRYEQASDVRAQLKFFEQLDQIEKQRKDEQEREILMRAAKSRSRQEDPEQLRLKQKAKEMQQQELAQMRQRDANLTALAAIGPRKKRKVDCPGPGSGAEGSGPGSVVPGSSGVGTPRQFTRQRITRVNLRDLIFCLENERETSHSLLLYKAFLK
notes: domain: full-length; in striatal neurons overexpressed
In the case of B1, the binding result is recorded as “binds”.
